From patent US20230052369A1 (Zymeworks, published 2023)
Where a chain is given by its changes, count along the chain named.

B1: v23664 (bispecific antibody, human IgG1, kappa, L234A L235A)
heavy 1: QVQLQESGPGLVQPTQSLSITCTVSGFSLISYGVHWVRQSPGKGLEWLGVIWSGGSTDYNAAFISRLSISKDNSKSQVFFKMNSLQADDTAIYYCARNPLTATVMDYWGQGTSVTVSSASTKGPSVFPLAPSSKSTSGGTAALGCLVKDYFPEPVTVSWNSGALTSGVHTFPAVLQSSGLYSLSSVVTVPSSSLGTQTYICNVNHKPSNTKVDKKVEPKSCDKTHTCPPCPAPEAAGGPSVFLFPPKPKDTLMISRTPEVTCVVVSVSHEDPEVKFNWYVDGVEVHNAKTKPREEQYNSTYRVVSVLTVLHQDWLNGKEYKCKVSNKALPAPIEKTISKAKGQPREPQVYVYPPSRDELTKNQVSLTCLVKGFYPSDIAVEWESNGQPENNYKTTPPVLDSDGSFALVSKLTVDKSRWQQGNVFSCSVMHEALHNHYTQKSLSLSPGGGGGDIVMTQTPSSVSAAVGGTVTIKCQASQTIGSSLAWYQQKPGQPPKLLIYRASTLASGVSSRFRGSGSGTEYTLTISDLECADAATYYCQWTDYGYIYIWAFGGGTEVVVKGGGGSGGGGSGGGGSQEQLVESGGGLVQPEGSLTLTCTASKFSFSSLYYMCWVRQAPGKGLEWIACVYGGSSGNTYYASWAKGRFTISKASSTTVTLQLTSLTAADTATYFCARFDVDGSGFNLWGPGTLVTVSS
heavy 2: QVQLQESGPGLVQPTQSLSITCTVSGFSLISYGVHWVRQSPGKGLEWLGVIWSGGSTDYNAAFISRLSISKDNSKSQVFFKMNSLQADDTAIYYCARNPLTATVMDYWGQGTSVTVSSASTKGPSVFPLAPSSKSTSGGTAALGCLVKDYFPEPVTVSWNSGALTSGVHTFPAVLQSSGLYSLSSVVTVPSSSLGTQTYICNVNHKPSNTKVDKKVEPKSCDKTHTCPPCPAPEAAGGPSVFLFPPKPKDTLMISRTPEVTCVVVSVSHEDPEVKFNWYVDGVEVHNAKTKPREEQYNSTYRVVSVLTVLHQDWLNGKEYKCKVSNKALPAPIEKTISKAKGQPREPQVYVLPPSRDELTKNQVSLLCLVKGFYPSDIAVEWESNGQPENNYLTWPPVLDSDGSFFLYSKLTVDKSRWQQGNVFSCSVMHEALHNHYTQKSLSLSPG
light: DIVMTQSQKFMSTSVGDRVSVTCKASQNVGTNVAWYQQKPGQSPKALIYSASYRDSGVPDRFTGSGSGTDFTLTISNVQSEDLAEYLCQQYNSYPLTFGAGTKLELKRTVAAPSVFIFPPSDEQLKSGTASVVCLLNNFYPREAKVQWKVDNALQSGNSQESVTEQDSKDSTYSLSSTLTLSKADYEKHKVYACEVTHQGLSSPVTKSFNRGEC
notes: also called 5G8 x 1H06 (VLVH) 2x1
B2: v23661 (bispecific antibody, human IgG1, kappa, L234A L235A)
heavy 1: QVQLKESGPGLVAPSQSLSITCTVSGFSLTTYAISWVRQPPGKGLEWLGIIWPGGGTNYNSALKSRLSISKDNSRSQVFLKMNSLQTDDTARYYCARGAGTWYFDVWGAGTTVTVSSASTKGPSVFPLAPSSKSTSGGTAALGCLVKDYFPEPVTVSWNSGALTSGVHTFPAVLQSSGLYSLSSVVTVPSSSLGTQTYICNVNHKPSNTKVDKKVEPKSCDKTHTCPPCPAPEAAGGPSVFLFPPKPKDTLMISRTPEVTCVVVSVSHEDPEVKFNWYVDGVEVHNAKTKPREEQYNSTYRVVSVLTVLHQDWLNGKEYKCKVSNKALPAPIEKTISKAKGQPREPQVYVYPPSRDELTKNQVSLTCLVKGFYPSDIAVEWESNGQPENNYKTTPPVLDSDGSFALVSKLTVDKSRWQQGNVFSCSVMHEALHNHYTQKSLSLSPGGGGGDIVMTQTPSSVSAAVGGTVTIKCQASQTIGSSLAWYQQKPGQPPKLLIYRASTLASGVSSRFRGSGSGTEYTLTISDLECADAATYYCQWTDYGYIYIWAFGGGTEVVVKGGGGSGGGGSGGGGSQEQLVESGGGLVQPEGSLTLTCTASKFSFSSLYYMCWVRQAPGKGLEWIACVYGGSSGNTYYASWAKGRFTISKASSTTVTLQLTSLTAADTATYFCARFDVDGSGFNLWGPGTLVTVSS
heavy 2: QVQLKESGPGLVAPSQSLSITCTVSGFSLTTYAISWVRQPPGKGLEWLGIIWPGGGTNYNSALKSRLSISKDNSRSQVFLKMNSLQTDDTARYYCARGAGTWYFDVWGAGTTVTVSSASTKGPSVFPLAPSSKSTSGGTAALGCLVKDYFPEPVTVSWNSGALTSGVHTFPAVLQSSGLYSLSSVVTVPSSSLGTQTYICNVNHKPSNTKVDKKVEPKSCDKTHTCPPCPAPEAAGGPSVFLFPPKPKDTLMISRTPEVTCVVVSVSHEDPEVKFNWYVDGVEVHNAKTKPREEQYNSTYRVVSVLTVLHQDWLNGKEYKCKVSNKALPAPIEKTISKAKGQPREPQVYVLPPSRDELTKNQVSLLCLVKGFYPSDIAVEWESNGQPENNYLTWPPVLDSDGSFFLYSKLTVDKSRWQQGNVFSCSVMHEALHNHYTQKSLSLSPG
light: DIQMTQSTSSLSASVGDRVTISCSASQGISNYLNWYQQKPDGTVKLLIYYTSSLHSGVPSRFSGSGSGTDYSLTISNLEPEDIATYYCQQYSKFPWTFGGGTKLEIKRTVAAPSVFIFPPSDEQLKSGTASVVCLLNNFYPREAKVQWKVDNALQSGNSQESVTEQDSKDSTYSLSSTLTLSKADYEKHKVYACEVTHQGLSSPVTKSFNRGEC
notes: also called 1C8 x 1H06 (VLVH) 2x1
B3: v23663 (bispecific antibody, human IgG1, kappa, L234A L235A)
heavy 1: B2 heavy 1 with T31S, S35N, I50V, I51L, R75K, A99S
heavy 2: B2 heavy 2 with T31S, S35N, I50V, I51L, R75K, A99S
light: B2 light with S7T, V15L, I21F, S56L, F94L
notes: also called 4E6 x 1H06 (VLVH) 2x1
B4: v28725 (antibody, human IgG1, kappa, L234A L235A, V domains shown)
VH: EVQLVESGGGLIQPGGSLRLSCAVSGFSLTTYAISWVRQAPGKGLEWLGIIWPGGGTNYADSVKGRFTISKDNSKNTLYLQMNSLRAEDTAVYYCARGAGTWYFDVWGQGTLVTVSS
VL: DIQMTQSPSSLSASVGDRVTITCSASQGISNYLNWYQQKPGKAPKLLIYYTSSLHSGVPSRFSGSGSGTDYTLTISSLQPEDIATYYCQQYSKFPWTFGQGTKLEIKR
notes: also called humanized 1C8 H7L2
B5: v28723 (antibody, human IgG1, kappa, L234A L235A, V domains shown)
VH: B4 VH with K71R
VL: B4 VL with A43T, P44V
notes: also called humanized 1C8 H6L3
B6: v28722 (antibody, human IgG1, kappa, L234A L235A, V domains shown)
VH: B4 VH with K71R
VL: B4 VL
notes: also called humanized 1C8 H6L2
B7: v28724 (antibody, human IgG1, kappa, L234A L235A, V domains shown)
VH: B4 VH
VL: B4 VL with Y71F, L73F, L104V
notes: also called humanized 1C8 H7L1
B8: v28721 (antibody, human IgG1, kappa, L234A L235A, V domains shown)
VH: B4 VH with K71R
VL: B4 VL with Y71F, L73F, L104V
notes: also called humanized 1C8 H6L1
B9: v28719 (antibody, human IgG1, kappa, L234A L235A, V domains shown)
VH: B4 VH with V24A, L48V, G49S, K71R
VL: B4 VL
notes: also called humanized 1C8 H5L2
B10: v28717 (antibody, human IgG1, kappa, L234A L235A, V domains shown)
VH: B4 VH with V24A, L48V, G49S, K71R
VL: B4 VL with Y71F, L73F, L104V
notes: FSA format, human IgG1/kappa; also called humanized 1C8 H5L1
B11: v28720 (antibody, human IgG1, kappa, L234A L235A, V domains shown)
VH: B4 VH with V24A, L48V, G49S, K71R
VL: B4 VL with A43T, P44V
notes: also called humanized 1C8 H5L3
B12: v28695 (antibody, human IgG1, kappa, L234A L235A, V domains shown)
VH: QVQLQESGPGLVKPSETLSLTCTVSGFSLISYGVHWIRQPPGKGLEWIGVIWSGGSTDYNPSLKSRVTISVDTSKNQFSLKLSSVTAADTAVYYCARNPLTATVMDYWGQGTLVTVSS
VL: DIQMTQSPSSLSASVGDRVTITCRASQNVGTNVAWFQQKPGKAPKSLIYSASYRDSGVPSRFSGSGSGTDFTLTISSLQPEDFATYYCQQYNSYPLTFGGGTKVEIKR
notes: also called humanized 5G8 H1L1
B13: v16601 (bispecific antibody)
VH: EVQLVQSGAEVKKPGESLRISCKGSGYSFSTYWISWVRQMPGKGLEWMGKIYPGDSYTNYSPSFQGQVTISADKSISTAYLQWSSLKASDTAMYYCARGYGIFDYWGQGTLVTVSS
VL: SYELTQPPSVSVSPGQTASITCSGDNIGDQYAHWYQQKPGQSPVLVIYQDKNRPSGIPERFSGSNSGNTATLTISGTQAMDEADYYCATYTGFGSLAVFGGGTKLTVL
scFv: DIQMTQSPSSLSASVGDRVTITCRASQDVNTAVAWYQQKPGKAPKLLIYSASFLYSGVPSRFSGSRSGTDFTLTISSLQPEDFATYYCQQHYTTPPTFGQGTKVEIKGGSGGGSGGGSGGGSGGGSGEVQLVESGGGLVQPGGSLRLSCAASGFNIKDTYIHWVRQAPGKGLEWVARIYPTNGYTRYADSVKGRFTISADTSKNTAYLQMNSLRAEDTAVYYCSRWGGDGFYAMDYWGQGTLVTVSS
B14: v16605 (bispecific antibody)
VH: B13 VH
VL: B13 VL
scFv: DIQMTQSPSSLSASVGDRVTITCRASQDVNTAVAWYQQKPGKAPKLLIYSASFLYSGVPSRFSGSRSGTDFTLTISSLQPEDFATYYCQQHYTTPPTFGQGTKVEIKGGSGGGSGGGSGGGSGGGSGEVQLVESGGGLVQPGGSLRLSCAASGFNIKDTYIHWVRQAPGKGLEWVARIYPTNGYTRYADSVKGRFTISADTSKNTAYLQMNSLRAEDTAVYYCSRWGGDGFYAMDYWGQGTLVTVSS
B15: v16675 (bispecific antibody, human IgG1, lambda, L234A L235A)
heavy 1: not shown
heavy 2: EVQLVQSGAEVKKPGESLRISCKGSGYSFSTYWISWVRQMPGKGLEWMGKIYPGDSYTNYSPSFQGQVTISADKSISTAYLQWSSLKASDTAMYYCARGYGIFDYWGQGTLVTVSSASTKGPSVFPLAPSSKSTSGGTAALGCLVKDYFPEPVTVSWNSGALTSGVHTFPAVLQSSGLYSLSSVVTVPSSSLGTQTYICNVNHKPSNTKVDKKVEPKSCDKTHTCPPCPAPELLGGPSVFLFPPKPKDTLMISRTPEVTCVVVDVSHEDPEVKFNWYVDGVEVHNAKTKPREEQYNSTYRVVSVLTVLHQDWLNGKEYKCKVSNKALPAPIEKTISKAKGQPREPQVYVYPPSRDELTKNQVSLTCLVKGFYPSDIAVEWESNGQPENNYKTTPPVLDSDGSFALVSKLTVDKSRWQQGNVFSCSVMHEALHNHYTQKSLSLSPG
light: SYELTQPPSVSVSPGQTASITCSGDNIGDQYAHWYQQKPGQSPVLVIYQDKNRPSGIPERFSGSNSGNTATLTISGTQAMDEADYYCATYTGFGSLAVFGGGTKLTVLGQPKAAPSVTLFPPSSEELQANKATLVCLISDFYPGAVTVAWKADSSPVKAGVETTTPSKQSNNKYAASSYLSLTPEQWKSHRSYSCQVTHEGSTVEKTVAPTECS
B16: v16679 (bispecific antibody, human IgG1, lambda, L234A L235A)
heavy 1: not shown
heavy 2: B15 heavy 2
light: B15 light

target: T1, purified human monomeric 4-1BB (human, UniProt Q07011 24-186); assay: SPR, Ab captured, monomeric 4-1BB injected
T1 construct: the assay used the 4-1BB part released by Factor Xa with the Fc removed; also called h4-1BB; human 4-1BB
T1 sequence (Q07011 other isoform, or with tags, fused parts or gaps limits assumed): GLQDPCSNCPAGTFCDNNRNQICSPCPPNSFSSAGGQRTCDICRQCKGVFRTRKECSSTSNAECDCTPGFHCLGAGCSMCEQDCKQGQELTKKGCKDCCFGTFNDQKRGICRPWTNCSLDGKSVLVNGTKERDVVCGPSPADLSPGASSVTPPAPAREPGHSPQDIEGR
Protocol: (§1) The anti-human Fc surface was prepared on a CMS Series S sensorchip by standard amine coupling methods as described by the manufacturer (GE Healthcare). Briefly, immediately after EDC/NHS activation, a 25 μg/mL solution of anti-human Fc in 10 mM NaOAc pH 4.5 was injected at a flow rate of 10 μL/min for 420 s until approximately 2000 resonance units (RUs) were immobilized on all four flow cells. The remaining active groups were quenched by a 420 s injection of 1M ethanolamine at 10 μL/min.
(§2) Antibodies for analysis were captured onto the anti-Fc surface by injecting 5 μg/mL solutions at a flow rate of 10 μL/min for 60 s. Using single-cycle kinetics, five concentrations of a two-fold dilution series of 4-1BB starting at 40 nM (for both supernatant and purified antibody runs) with a blank buffer control were sequentially injected at 40 μL/min for 180 s with a 600 s dissociation phase, resulting in a set of sensorgrams with a buffer blank reference. Experiments were performed at a constant temperature of 25° C. The anti-human Fc surfaces were regenerated to prepare for the next injection cycle by one pulse of 10 mM Glycine/HCl pH 1.5 for 120 s at 40 μL/min. Blank-subtracted sensorgrams were analyzed using Biacore™ T200 Evaluation Software v3.0. The blank-subtracted sensorgrams were then fit to the 1:1 Langmuir binding model.
Variants purified by SEC were assessed for binding to human 4-1BB.

| Binder | Kd [nM] |
| --- | --- |
| B1 | 220 |
| B2 | 535 |
| B3 | 502 |

target: T1, purified human monomeric 4-1BB; assay: SPR, Ab captured, monomeric 4-1BB injected; remark: another data set of the same source
Protocol: as §1, §2
Protein material post protein-A or SEC was assessed for binding to human 4-1BB.

| Binder | binding result |
| --- | --- |
| B4 | no binding |
| B5 | no binding |
| B6 | no binding |
| B7 | no binding |
| B8 | no binding |
| B9 | no binding |
| B10 | no binding |
| B11 | no binding |
| B12 | no binding |

target: human 4-1BB, full-length, expressed on cells (human, UniProt Q07011 24-255); assay: cell-based or functional assay
Sequence (Q07011 24-255): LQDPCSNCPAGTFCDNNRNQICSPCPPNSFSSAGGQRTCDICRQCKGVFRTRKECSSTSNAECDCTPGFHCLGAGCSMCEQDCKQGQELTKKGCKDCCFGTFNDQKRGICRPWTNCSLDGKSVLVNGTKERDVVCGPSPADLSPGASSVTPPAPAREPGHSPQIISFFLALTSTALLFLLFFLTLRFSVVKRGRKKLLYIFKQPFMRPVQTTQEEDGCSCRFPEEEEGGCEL

| Binder | EC50 (pM), 4-1BB NF-kB-luciferase Jurkat reporter in co-culture with SKOV3 [pM] | Max activity (RLU), 4-1BB NF-kB-luciferase Jurkat reporter [RLU] |
| --- | --- | --- |
| B13 | 2620 | 27900 |
| B14 | 401 | 92000 |
| B15 | 56.9 | 80900 |
| B16 | 30.1 | 131000 |

target: T2, full-length human FRα, on 293E cells (human, UniProt P15328 25-234); assay: flow cytometry, 293E cells expressing FRα
T2 construct: also called folate receptor alpha; FOLR1
T2 sequence (P15328 25-234 limits assumed): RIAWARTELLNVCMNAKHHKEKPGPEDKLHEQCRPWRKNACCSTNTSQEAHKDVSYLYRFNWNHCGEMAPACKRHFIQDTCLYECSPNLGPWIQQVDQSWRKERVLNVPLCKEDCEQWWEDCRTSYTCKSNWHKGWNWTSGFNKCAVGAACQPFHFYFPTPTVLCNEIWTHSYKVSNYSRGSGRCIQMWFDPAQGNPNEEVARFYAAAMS
Protocol: Antibodies were diluted in 50 μl FB (PBS 2% FCS) 1:3 from stock in wells of a 96 V-well plate, and cells added on top. The cells were then left on ice for 30 minutes for the antibodies to bind. The cells were then washed twice in FB, and incubated in 50 μl FB containing 2 μg/ml goat anti-human Alexa647 antibody (Jackson Immunoresearch). The cells were then left on ice for a further 20 minutes, washed twice in FB, resuspended in 100 μl FB and analyzed on a BD Fortessa™ X20. The subsequent data files were analyzed using FlowJo™ and Prism 7 (GraphPad).

| Binder | binding result |
| --- | --- |
| B1 | binds |
| B2 | binds |
| B3 | binds |
